The values that follow come from US9873733B2, “Anti-staphylococcal antibodies” (priority 2012, dated 2018).

Test [1] concerns the target cyclic peptide representing loop 4 of MprF (Staphylococcus aureus, UniProt Q2G2M2). The following applies: IgG in PBS; biotinylated cyclic peptide 5 μg/ml. The protocol: The IgGs were tested for binding to the antigen, which was used in their selection. Also binding to other MprF-peptides was tested to check for selectivity.
For ELISAs with cyclic antigen, the biotinylated cyclic peptides (final conc. 5 μg/ml) were incubated with IgGs in PBS. Then the mix was transferred to a pre-blocked Neutravidin plate (Thermo Scientific), incubated and then the plate was washed with PBS containing 0.5% of TWEEN20. MprF-specific IgGs were detected using goat-anti-human IgG (Sigma).
In both cases washing was performed using PBST ([…] with 0.05% TWEEN20. Detection was performed using alkaline phosphatase coupled Goat anti-human IgG (Sigma Cat. # A-8542 and Attophos™ substrate Roche, Cat. #11681982001). Fluorescence was measured at an excitation of 440±25 nm and an emission of 550±35 nm. Full signal intensity is typically reached after 5-15 min at room temperature.

For test [2], the system named is MprF on S. aureus (Protein A deletion mutant, delta spa). The test is described as follows: Whole cell ELISA on S. aureus. Format: binding, Staphylococcus aureus. The following applies: E. coli as negative control. How it is done:
(§1) The specificity of the purified antibodies was tested for binding to whole cell Staphylococcus aureus in an ELISA assay. Escherichia coli bacteria were used as a negative control.
(§2) For ELISA on S. aureus the Protein A deletion mutant (delta spa) or the mutant with an additional deletion in MprF (delta spa delta mprf) were grown to mid log phase, than washed in PBS and resuspended in saline to a final OD600 of 0.6. This bacterial culture was coated on Maxisorp plates (Nunc). Plates were blocked with 2% BSA/PBS and washed with TSB containing 0.5% TWEEN20.

The subject of test [3] is S. aureus mutants lacking MprF expression (delta spa delta mprF). The test is described as follows: Whole cell ELISA on S. aureus mutant lacking MprF. Format: binding, Staphylococcus aureus. The settings on record: compared with delta spa. How it is done: as §1, §2
Background: In an ELISA, binding on a coated surface is turned into a signal by an enzyme label.

Test [4] has as its system S. aureus SA113 Δspa. In words: Killing of S. aureus by nisin with MprF antibodies. Format: cell-based, Staphylococcus aureus. The settings on record: antibody 100 μg/ml, 22.5 μg/ml nisin, 2 hours; anti-lysozyme antibody as control. How it is done:
In this experiment killing of Staphylococcus aureus was tested. Nisin was used as an exemplary cationic antimicrobial compound. Nisin was tested in combination with selected antibodies of the present invention. An anti-lysozyme antibody was used as a negative control.
(§3) Overnight cultures of S. aureus SA113 Δspa were diluted in fresh MHB medium and adjusted to OD600 0.25 (˜1.5×10^7 cells). Antibodies were adjusted to a concentration of 1 mg/ml and 10 μl were applied per well of a 96 well plate and diluted in 90 μl of the adjusted cell suspension (final antibody concentration: 100 μg/ml). Cells were grown in the presence of anti-lysozyme antibody (control) or with the anti-MprF antibodies. Duplicates were employed for each assay. After 3 hours of incubation under shaking conditions at 37° C., optical density was determined, adjusted to OD600 0.025 in 500 μl ice cold PBS buffer. 80 μl of the adjusted cell suspension were diluted with 20 μl of antimicrobial substances to final concentrations of 22.5 μg/ml nisin. After incubation for 2 hours under shaking conditions at 37° C., the cell suspensions were diluted 1:2000 and 100 μl of each duplicate was plated in triplicates on TSB medium containing agar plates to obtain a representative value of bacterial survival. Cells treated without antimicrobial substance were set at 100% and survival values were calculated with cells treated with antimicrobial substances. At least three independent assays were employed.

In test [5] the test system is S. aureus SA113 Δspa. The test is described as follows: Killing of S. aureus by daptomycin with MprF antibodies. Format: cell-based, Staphylococcus aureus. The following applies: antibody 100 μg/ml, 12.5 μg/ml Daptomycin; anti-lysozyme antibody as control. How it is done: as §3
The previous experiment was repeated, but instead of nisin, daptomycin is used. […]

In test [6] the test system is S. aureus SA113 Δspa. In words: Killing of S. aureus by LL-37 with MprF antibodies. Format: cell-based, Staphylococcus aureus. The settings on record: antibody 100 μg/ml, 45.0 μg/ml LL-37; anti-lysozyme antibody as control. How it is done: as §3
The previous experiment was repeated, but instead of nisin LL-37 is used. […]

Test [7] relates to S. aureus SA113 Δspa (flippase reaction of MprF). In words: Cytochrome C repulsion assay. Format: cell-based, Staphylococcus aureus. The settings on record: pre-incubation 3 hours, compared to anti-lysozyme antibodies. The protocol:
The repulsion of positively charged cytochrome C has been repeatedly employed to investigate charge dependent cell surface modifications in bacteria, including the flippase reaction of MprF, which leads to increased positively charged lipids in the outer leaflet of the membrane and to increased repulsion of cytochrome C (Ernst et al., PLoS Pathogens 2009). Briefly, cells were grown in the presence of M-C4.1 or anti-lysozyme for 3 hours, followed by incubation with cytochrome C for 15 minutes and measurement of optical density of the supernatant in order to determine repulsion of positively charged cytochrome C. The established cytochrome C repulsion assay was scaled down to accommodate for the reduced amount of bacteria employed in the killing-assays.

Test [8] deals with S. aureus SA113 Δspa (MprF-mediated flipping of lysyl-phosphatidylglycerol). The test is described as follows: Annexin V assay. Format: cell-based, Staphylococcus aureus. The following applies: flow cytometry; anti-lysozyme pre-treated cells set at 100%. How it is done:
Annexin V binds preferentially to negatively charged phospholipids and is therefore a useful tool for measuring the relative content of MprF-mediated flipping of lysyl-phosphatidylglycerol, as translocation leads to reduced accessibility of negatively charged phospholipids in the outer leaflet of the membrane and therefore to reduced binding of annexin V. Cells (S. aureus SA113 Δspa) were grown in the presence of M-C4.1 or anti-lysozyme antibody and then treated with annexin V for 15 minutes before being analyzed by flow cytometry for surface-bound fluorophore (FL-4 channel). Data are expressed in relative fluorescence units and compared to cells pre-treated with anti-lysoyzme set at 100% fluorescence.
Background: In flow cytometry, cells or beads pass a laser one at a time.

Test [9] relates to Staphylococcus aureus clinical isolate 703. In words: Killing of clinical isolate 703 by daptomycin. Format: cell-based. The settings on record: 11 μg/ml daptomycin; anti-lysozyme antibody as control. How it is done: as §3
In this experiment killing of Staphylococcus aureus clinical isolate 703 (described in Jones et al., AAC 2008) by daptomycin in the presence of an MprF specific antibody was analyzed. […]

B1: M-C4.1: human IgG1 against cyclic peptide, loop 4 of MprF; VH1A kappa 1; VL Seq. ID: 44, VH Seq. ID: 45 (antibody, V domains shown)
VH: QVQLVQSGAEVKKPGSSVKVSCKASGGTFNSYAISWVRQAPGQGLEWMGGIIPIFGMATYAQKFQGRVTITADESTSTAYMELSSLRSEDTAVYYCARSLFGRAYWGQGTLVTVSS
VL: DIQMTQSPSSLSASVGDRVTITCRASQSISSFLAWYQQKPGKAPKLLIYDASSLQSGVPSRFSGSGSGTDFTLTISSLQPEDFATYYCLQADSTSYTFGQGTKVEIKRT
modifications: MC41 VH; MC41 VL
notes: human IgG1 against cyclic peptide, loop 4 of MprF; VH1A kappa 1; ID: 45
Consider B1, for which the “Specific binding to cyclic loop 4 peptide (ELISA)” value in [1] is on record as “specifically bind to cyclic loop 4 peptide in a dose-dependent manner”. Moreover, the “Binding to whole cell S. aureus (ELISA)” value in test [2] was “detect MprF on S. aureus”. Besides, the “Binding to S. aureus mutants lacking MprF expression (ELISA)” value in test [3] is recorded as “significantly weaker binding”. Besides, the “Sensitivity of S. aureus towards nisin (killing, bacterial survival)” value in the test on S. aureus SA113 Δspa [4] is given as “most pronounced effects”. Besides, the “Sensitivity of S. aureus towards daptomycin (killing)” value in the test with S. aureus SA113 Δspa [5] is listed as “increased the sensitivity of Staphylococcus aureus towards daptomycin”. The “Sensitivity of S. aureus towards LL-37 (killing)” value with S. aureus SA113 Δspa [6] is “increased the sensitivity of Staphylococcus aureus towards LL-37”. Further, in test [7], the “Decreased repulsion of cytochrome C” value worked out at 40%. In addition, the “Increased binding of annexin V” value in test [8] was 70%. For the same molecule, the “Susceptibility of S. aureus 703 to daptomycin (killing) with MprF antibody” value in test [9] is reported as “restored susceptibility of S. aureus 703 bacteria to daptomycin”.
